The target of test [1] is T1, VP4 of rotavirus strain Wa (G1P[8]) (human rotavirus, UniProt P11193 1-775). As to the kind of experiment: cell-based or functional assay.
Test [2] addresses T1, VP4 of rotavirus strain Wa (G1P[8]). As to the kind of experiment: immunostaining, RV-infected MA104 cells.
Test [3] deals with T2, CDC-9 triple layered particles (TLPs), G1P[8] (human rotavirus). As to the kind of experiment: ELISA, CDC-9 TLPs.
Test [4] concerns the target VP7 of rotavirus strain 69M (G8P[10]) (human rotavirus). As to the kind of experiment: cell-based or functional assay.
For test [5], the target named is VP7 of rotavirus strain #321 (G10P[11]) (human rotavirus). Nature of the test: cell-based or functional assay.
Test [6] addresses VP7 of rotavirus strain DS1 (G2P[4]) (human rotavirus). Nature of the test: cell-based or functional assay.
Test [7] addresses T3, VP7 of rotavirus strain RRV (G3P[3]) (simian rotavirus, UniProt P12476 51-326). Nature of the test: cell-based or functional assay.
The target of test [8] is VP7 of rotavirus strain OSU (G5P[7]) (porcine rotavirus). As to the kind of experiment: cell-based or functional assay.
Test [9] concerns the target T4, VP7 of rotavirus strain DS1 (G2P[4]) (human rotavirus).
T4 construct: whole, on cells
As to the kind of experiment: immunostaining, RV-infected MA104 cells.

The target of test [10] is T5, VP7 of rotavirus strain ST3 (G4P[6]) (human rotavirus).
T5 construct: whole, on cells
T5 sequence (P10501 51-326): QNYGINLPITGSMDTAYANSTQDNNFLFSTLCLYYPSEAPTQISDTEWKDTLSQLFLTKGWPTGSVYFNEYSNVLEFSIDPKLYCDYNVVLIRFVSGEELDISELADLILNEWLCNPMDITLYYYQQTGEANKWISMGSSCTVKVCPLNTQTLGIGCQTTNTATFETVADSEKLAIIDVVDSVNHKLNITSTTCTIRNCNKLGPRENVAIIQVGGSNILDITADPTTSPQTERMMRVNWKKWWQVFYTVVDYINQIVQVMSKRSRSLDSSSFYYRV
Nature of the test: immunostaining, RV-infected MA104 cells.

The target in test [11] is T3, VP7 of rotavirus strain RRV (G3P[3]). Nature of the test: immunostaining, RV-infected MA104 cells.
Test [12] has as its target T6, VP7 of rotavirus strain OSU (G5P[7]) (porcine rotavirus).
T6 construct: whole, on cells; also called OSU G5[7]
As to the kind of experiment: immunostaining, RV-infected MA104 cells.

The target of test [13] is T7, VP7 of rotavirus strain Wa (G1P[8]) (human rotavirus, UniProt P03532 51-326). As to the kind of experiment: cell-based or functional assay.
T7 sequence (P03532 51-326 limits assumed): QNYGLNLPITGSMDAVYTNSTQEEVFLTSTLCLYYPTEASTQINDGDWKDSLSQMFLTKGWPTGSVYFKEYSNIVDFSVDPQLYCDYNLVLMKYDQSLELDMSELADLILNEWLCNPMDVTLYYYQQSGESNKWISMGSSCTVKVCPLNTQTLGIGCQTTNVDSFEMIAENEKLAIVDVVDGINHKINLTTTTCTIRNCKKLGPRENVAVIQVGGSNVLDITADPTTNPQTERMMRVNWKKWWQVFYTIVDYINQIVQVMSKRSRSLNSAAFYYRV
In test [14] the target is T7, VP7 of rotavirus strain Wa (G1P[8]). Nature of the test: immunostaining, RV-infected MA104 cells.
The target of test [15] is VP4 of rotavirus strain 69M (G8P[10]) (human rotavirus). Nature of the test: cell-based or functional assay.
Test [16] concerns the target VP4 of rotavirus strain #321 (G10P[11]) (human rotavirus). Nature of the test: cell-based or functional assay.
For test [17], the target named is VP4 of rotavirus strain NCDV (G6P[1]) (bovine rotavirus). As to the kind of experiment: cell-based or functional assay.
Test [18] has as its target VP4 of rotavirus strain OSU (G5P[7]) (porcine rotavirus). As to the kind of experiment: cell-based or functional assay.
The target in test [19] is T8, VP4 of rotavirus strain DS1 (G2P[4]) (human rotavirus, UniProt Q14197).
T8 construct: whole, on cells
As to the kind of experiment: immunostaining, RV-infected MA104 cells.

The target in test [20] is T9, VP4 of rotavirus strain ST3 (G4P[6]) (human rotavirus).
T9 construct: whole, on cells
T9 sequence (P11200 whole entry): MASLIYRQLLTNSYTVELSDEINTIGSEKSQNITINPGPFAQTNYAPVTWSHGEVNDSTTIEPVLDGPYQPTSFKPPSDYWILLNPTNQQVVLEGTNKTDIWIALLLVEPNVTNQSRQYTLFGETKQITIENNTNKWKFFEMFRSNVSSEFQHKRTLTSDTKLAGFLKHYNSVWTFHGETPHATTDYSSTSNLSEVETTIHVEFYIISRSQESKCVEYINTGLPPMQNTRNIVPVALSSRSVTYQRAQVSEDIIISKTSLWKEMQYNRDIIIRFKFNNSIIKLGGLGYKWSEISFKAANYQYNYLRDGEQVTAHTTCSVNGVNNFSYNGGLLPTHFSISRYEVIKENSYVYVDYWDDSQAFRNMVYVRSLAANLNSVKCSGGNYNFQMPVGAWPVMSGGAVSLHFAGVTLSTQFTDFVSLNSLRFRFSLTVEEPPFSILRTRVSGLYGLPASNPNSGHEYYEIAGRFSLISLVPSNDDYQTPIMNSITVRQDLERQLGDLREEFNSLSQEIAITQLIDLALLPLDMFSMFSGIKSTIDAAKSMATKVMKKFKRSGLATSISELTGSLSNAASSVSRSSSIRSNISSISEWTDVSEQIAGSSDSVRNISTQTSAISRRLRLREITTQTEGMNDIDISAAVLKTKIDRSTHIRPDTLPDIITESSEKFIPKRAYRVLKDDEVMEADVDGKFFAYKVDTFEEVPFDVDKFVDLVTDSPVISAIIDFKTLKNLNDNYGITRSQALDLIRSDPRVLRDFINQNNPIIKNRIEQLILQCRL
As to the kind of experiment: immunostaining, RV-infected MA104 cells.

In test [21] the target is T10, VP4 of rotavirus strain NCDV (G6P[1]) (bovine rotavirus).
T10 construct: whole, on cells
T10 sequence (P17465 whole entry): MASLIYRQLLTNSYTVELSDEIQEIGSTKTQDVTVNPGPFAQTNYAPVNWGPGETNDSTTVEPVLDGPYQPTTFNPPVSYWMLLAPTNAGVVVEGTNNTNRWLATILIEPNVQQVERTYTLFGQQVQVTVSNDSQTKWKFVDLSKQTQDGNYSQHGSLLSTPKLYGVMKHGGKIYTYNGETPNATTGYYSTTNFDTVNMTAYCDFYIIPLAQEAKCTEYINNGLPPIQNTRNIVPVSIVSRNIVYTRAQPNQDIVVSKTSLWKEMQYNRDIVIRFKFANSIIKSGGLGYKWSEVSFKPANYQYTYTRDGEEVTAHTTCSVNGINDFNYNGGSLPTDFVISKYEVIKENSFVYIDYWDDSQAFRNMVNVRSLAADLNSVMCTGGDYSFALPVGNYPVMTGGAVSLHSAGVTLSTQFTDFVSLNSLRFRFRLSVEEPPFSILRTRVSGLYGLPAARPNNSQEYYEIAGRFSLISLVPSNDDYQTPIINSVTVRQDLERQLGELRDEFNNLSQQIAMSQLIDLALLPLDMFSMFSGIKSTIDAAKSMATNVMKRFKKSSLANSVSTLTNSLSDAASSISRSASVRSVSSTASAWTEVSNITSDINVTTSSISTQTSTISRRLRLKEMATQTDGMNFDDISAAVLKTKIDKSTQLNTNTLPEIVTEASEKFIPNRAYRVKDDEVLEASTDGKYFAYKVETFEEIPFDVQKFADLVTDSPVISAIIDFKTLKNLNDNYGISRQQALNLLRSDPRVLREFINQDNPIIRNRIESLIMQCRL
As to the kind of experiment: immunostaining, RV-infected MA104 cells.

For test [22], the target named is T11, VP4 of rotavirus strain OSU (G5P[7]) (porcine rotavirus).
T11 construct: whole, on cells; also called OSU G5[7]
T11 sequence (P11114 whole entry): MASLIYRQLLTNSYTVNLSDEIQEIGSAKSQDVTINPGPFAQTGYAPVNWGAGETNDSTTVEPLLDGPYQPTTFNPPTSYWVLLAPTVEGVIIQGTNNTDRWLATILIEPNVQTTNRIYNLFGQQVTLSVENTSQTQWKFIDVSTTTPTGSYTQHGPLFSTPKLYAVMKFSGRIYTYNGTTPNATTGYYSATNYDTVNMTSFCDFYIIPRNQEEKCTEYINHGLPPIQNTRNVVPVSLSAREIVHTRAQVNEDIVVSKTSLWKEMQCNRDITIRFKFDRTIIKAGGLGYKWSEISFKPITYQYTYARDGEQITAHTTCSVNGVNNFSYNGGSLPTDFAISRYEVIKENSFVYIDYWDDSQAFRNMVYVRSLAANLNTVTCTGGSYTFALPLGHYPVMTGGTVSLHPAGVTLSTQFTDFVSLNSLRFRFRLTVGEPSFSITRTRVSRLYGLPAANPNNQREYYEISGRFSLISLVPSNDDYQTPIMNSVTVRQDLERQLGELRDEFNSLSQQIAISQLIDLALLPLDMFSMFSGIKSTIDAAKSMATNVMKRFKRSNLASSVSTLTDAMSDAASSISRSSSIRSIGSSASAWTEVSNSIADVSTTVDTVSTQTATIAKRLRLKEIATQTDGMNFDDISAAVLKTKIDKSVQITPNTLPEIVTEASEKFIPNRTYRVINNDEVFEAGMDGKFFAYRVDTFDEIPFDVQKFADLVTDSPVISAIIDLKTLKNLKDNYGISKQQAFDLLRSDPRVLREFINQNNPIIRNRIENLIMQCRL
Nature of the test: immunostaining, RV-infected MA104 cells.

Test [23] has as its target T2, CDC-9 triple layered particles (TLPs), …. As to the kind of experiment: cell-based or functional assay.
In test [24] the target is T8, VP4 of rotavirus strain DS1 (G2P[4]). Nature of the test: cell-based or functional assay.

T1 sequence (P11193 whole entry): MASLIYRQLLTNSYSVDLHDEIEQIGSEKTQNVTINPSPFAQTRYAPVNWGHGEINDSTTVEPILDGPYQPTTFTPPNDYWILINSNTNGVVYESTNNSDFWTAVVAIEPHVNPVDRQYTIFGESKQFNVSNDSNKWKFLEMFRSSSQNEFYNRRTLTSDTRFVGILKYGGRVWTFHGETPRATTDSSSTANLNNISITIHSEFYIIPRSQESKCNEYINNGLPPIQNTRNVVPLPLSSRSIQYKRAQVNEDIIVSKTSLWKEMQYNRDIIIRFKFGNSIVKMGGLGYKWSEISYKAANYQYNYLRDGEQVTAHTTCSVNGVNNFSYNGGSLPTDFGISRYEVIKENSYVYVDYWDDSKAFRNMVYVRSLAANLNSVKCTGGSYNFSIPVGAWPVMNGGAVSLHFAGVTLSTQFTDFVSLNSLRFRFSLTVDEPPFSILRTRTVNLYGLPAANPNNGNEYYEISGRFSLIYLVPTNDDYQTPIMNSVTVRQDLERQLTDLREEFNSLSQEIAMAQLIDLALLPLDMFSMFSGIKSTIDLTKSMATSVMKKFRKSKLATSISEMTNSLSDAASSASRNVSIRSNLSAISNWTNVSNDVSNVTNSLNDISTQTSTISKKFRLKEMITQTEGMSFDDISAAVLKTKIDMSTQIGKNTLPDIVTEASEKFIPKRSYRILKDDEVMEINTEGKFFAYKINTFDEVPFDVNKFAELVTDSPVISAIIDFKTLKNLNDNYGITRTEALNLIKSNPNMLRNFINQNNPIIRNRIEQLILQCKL
T4 sequence (P11850 51-326): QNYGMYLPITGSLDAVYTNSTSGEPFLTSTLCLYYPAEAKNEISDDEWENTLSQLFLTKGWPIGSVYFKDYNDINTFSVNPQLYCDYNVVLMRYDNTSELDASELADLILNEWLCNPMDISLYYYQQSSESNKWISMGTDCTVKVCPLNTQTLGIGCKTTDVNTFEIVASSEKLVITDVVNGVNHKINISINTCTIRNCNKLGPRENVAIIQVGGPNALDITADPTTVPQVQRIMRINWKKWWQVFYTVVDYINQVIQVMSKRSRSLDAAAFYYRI
T3 sequence (P12476 51-326): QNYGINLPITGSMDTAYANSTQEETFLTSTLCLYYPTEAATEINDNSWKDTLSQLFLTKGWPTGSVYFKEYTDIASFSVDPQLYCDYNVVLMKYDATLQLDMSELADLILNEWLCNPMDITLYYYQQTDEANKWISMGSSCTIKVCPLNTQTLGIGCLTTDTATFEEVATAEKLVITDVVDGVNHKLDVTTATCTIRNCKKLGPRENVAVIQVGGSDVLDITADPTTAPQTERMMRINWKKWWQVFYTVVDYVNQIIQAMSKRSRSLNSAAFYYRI
T6 sequence (P08406 51-326): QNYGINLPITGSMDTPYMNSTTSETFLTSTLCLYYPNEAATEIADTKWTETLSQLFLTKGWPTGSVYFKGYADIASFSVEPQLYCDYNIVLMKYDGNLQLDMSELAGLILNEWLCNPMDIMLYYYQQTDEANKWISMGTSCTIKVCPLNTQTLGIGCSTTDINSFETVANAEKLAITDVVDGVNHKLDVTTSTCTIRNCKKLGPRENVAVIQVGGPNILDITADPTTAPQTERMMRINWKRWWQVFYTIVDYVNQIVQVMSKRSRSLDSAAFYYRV

B1: mAb #41 (antibody, V domains shown)
VH: EVQLVESGGGPVQPGGSLKLSCAASGFTFSNYEMYWVRQAPGKGLEWVSYISTSPAITYYADSVRGRFTISRDNAKSSLYLHMNSLRAEDTAVYYCATISHQQFSSGWNAWFDPWGQGTLVTVSS
VL: NFMLTQPHSVSESPGKTVTISCTGSSGSIASNYVQWYRQRPGSAPTTVIYENYQRPSGVPARFSGSIDRSSNSASLTISGLQTDDEADYYCQSYDNNNLWVFGGGTKLTVL
notes: also called mAb ID: 41; Mab No. 41
In test [1], B1 had a minimum neutralizing concentration of 0.6 ng/mL. Moreover, the Endpoint immunostaining concentration in [2] stood at 0.5 ng/mL.

B2: mAb #57 (antibody, V domains shown)
VH: QVQLVESGGGVVQSGRSLRLSCAASGFTFRSYAMHWVRQAPGKGLEWVADLSLDGSHKYADSVRGRFTISSDSSKNTVYLQMNSLRTEDTAIYYCARAAGIMVAGTFLTEFYFDYWGQGTLVTVSS
VL: QSVLTQPPSVSGAPGQRVTISCTGSSSNIGAGYDVHWYQQLPGTAPKLLIYGNIKRPSGVPDRFSGSKSGTSASLAITGLQTEDEADYYCQSYDSSLSAYYVFGTGTRVTVL
notes: also called mAb ID: 57; Mab No. 57
B2: the “Minimum concentration for TLP binding” value in test [3] stood at 0.5 ng/mL. For the same molecule, the in vitro neutralization in test [4] and in test [5] was greater than 625 ng/mL each time. Also, the minimum neutralizing concentration is 4.9 ng/mL in test [6], 1.2 ng/mL in test [7] and 19.5 ng/mL in [8]. Further, the Endpoint immunostaining concentration in test [9] was found to be 0.5 ng/mL; in test [10] it was 500 ng/mL; in test [11], 5 ng/mL; in test [12], 50 ng/mL.

B3: mAb #27 (antibody, V domains shown)
VH: QVQLQESGPGLVKPLETLSLTCAVSGVSINSYYWSWIRQPPGKGLEWIGNVFYSGSTKYNPSLESRVAMTVDSSRNQVSLRLNSVTAADTAVYYCAREGVGYGYNNYGGNWFDPWGQGTLVTVSS
VL: EVVLTQSPGTLSLSPGERVTLSCRASQSVTSSNLAWYQQKPGQTPRLLISGASSRATGIPDRFSGSGSGTDFTLTISRLEPEDFAVYYCQQYANSPVTFGGGTKLEIK
notes: also called mAb ID: 27; Mab No. 27
On to B3, for which, in test [13], the minimum neutralizing concentration was 0.3 ng/mL. In addition, in test [14], the Endpoint immunostaining concentration came to 0.5 ng/mL.

B4: mAb #30 (antibody, V domains shown)
VH: QVQLVQSGAEVKKPGASVTVSCKASGYAFTSFYLHWVRQAPGQGLEWMGIINPSDGRTRYAQKFQGRVTMTSDTSTNTVYVELSSLRSEDTAIYYCARGAIGNYNAREALDVWGRGTTVTVSS
VL: EIVMTQSPATLSVSPGESATLSCRASQSINSNLAWYQQKPGQAPRLLIFSASSRATGIPARFSGSGSGTEFTLTISSLQSDDFAVYYCQQYNIWPPEHTFGQGTRLQIK
notes: also called mAb ID: 30; Mab No. 30
For the molecule B4, the minimum neutralizing concentration in test [1] amounted to 0.6 ng/mL. In addition, in [2], the Endpoint immunostaining concentration came to 5 ng/mL.

B5: mAb #2 (antibody, V domains shown)
VH: EVQLVESGGGLVKPGGSLRLSCKASGLIVSDAWMSWVRQSPGKGLEWVGRIKSEINGGTIDYAAPVKGRFTILRDDSKNTLYLQINSLKTEDTAVYYCTTRLLFSPWGQGTLVTVSS
VL: QPVLTQPPSSSASPGESARLTCTLPSDINVAYYNIYWYQQKPGSPPRYLLYYYSDSDQGQGSGVPSRFSGSKDASANTGILFISGLQSEDEADYYCMIWTSNASMFGGGTKLTVL
notes: also called mAb ID: 2; Mab No. 2
Molecule B5 came in with an Endpoint immunostaining concentration in [2] of 5 ng/mL.

B6: mAb #46 (antibody, V domains shown)
VH: QVQLQESGPGLVKPSETLSLTCTVSGGSINSYYWSWIRQSPGKGLEWIGYVFYSGITKYNPSLQSRVTISLDMGKNQFSLKLTSVNAADAAVYYCARNFPSYTPDWFFDLWGRGTLVTVSS
VL: EIVLTQSPGTLSLSPGERATLSCRASQSVSSDNLAWYQQKPGQPPRLLIYGASHRATGIPDRFSGSGSGTDFTLTISRLEPEDFAVYHCQQYGSSPLTFGGGTKVEIK
notes: also called mAb ID: 46; Mab No. 46
Regarding B6, the “Minimum concentration for TLP binding” value in [3] was found to be 0.5 ng/mL. Also, the in vitro neutralization in [4] and in test [5] was greater than 625 ng/mL in each case. In test [13], this molecule showed a minimum neutralizing concentration of 2.4 ng/mL. The molecule also gave an Endpoint immunostaining concentration in test [14] of 0.5 ng/mL.

B7: mAb #33 (antibody, V domains shown)
VH: DVQLVESGGGLVQPGGPSRLSCSASRFTFSNYAMYWVRQAPGKGLEYVSSISSDGGSTYYAESVKGRFTISRDNSKNTLYLQMRSLRAEDAAVYYCVTDVLRLPYSTGWSPGDFIYWGQGTLVTVSS
VL: DIQMTQSPSILYASVGDRVTITCRASQSVSSWLAWYQQKPGKVPKLLIYQASTLENGVPSRFSGSGSGTEFILTISSLQPDDFATYYCQHYNVLWTFGQGTKVEI
notes: also called mAb ID: 33; Mab No. 33
For the molecule B7, in test [1], the minimum neutralizing concentration is 2.4 ng/mL. Also, the Endpoint immunostaining concentration in [2] was determined as 50 ng/mL.

B8: mAb #49 (antibody, V domains shown)
VH: DVQLVESGGGLVQPGGSVRLSCSASRFTFSNYAMYWVRQAPGKGLEYVSSISSDGGSTYYAESVKGRFTISRDNSKNTLYLQMRSLRAEDAAVYYCVTDVLRLPYSTGWSPGDFIYWGQGTLVTVSS
VL: DIQMTQSPSILYASVGDRVTITCRASQSVSSWLAWYQQKPGKVPKLLIYQASTLENGVPSRFSGSGSGTEFILTISSLQPDDFATYYCQHYNVLWTFGQGTKVEIK
notes: also called mAb ID: 49; Mab No. 49
B8: the “Minimum concentration for TLP binding” value in [3] was determined as 5 ng/mL. Moreover, the in vitro neutralization in test [15] and in test [16] was greater than 625 ng/mL each time. For the same molecule, the minimum neutralizing concentration in test [1] is 39.1 ng/mL; in test [17], 39.1 ng/mL; in [18], 156 ng/mL. For the same molecule, the Endpoint immunostaining concentration in test [2] is 5 ng/mL; in test [19], 0.5 ng/mL; in test [20], 5 ng/mL; in test [21], 5.6 ng/mL; in test [22] it was 5.6 ng/mL.

B9: mAb #47 (antibody, V domains shown)
VH: QVQLQESGPGLVKPSETLSLTCSVSGGSISVYYWNWIRQSPGKGLEWIASMYYTGITNYNPSLKSRVTMSVDMSKNQFSLKLSSVTAADTAVYYCARTMGIDQNNRGWPPAGYYFGMDVWGQGTTVTVSS
VL: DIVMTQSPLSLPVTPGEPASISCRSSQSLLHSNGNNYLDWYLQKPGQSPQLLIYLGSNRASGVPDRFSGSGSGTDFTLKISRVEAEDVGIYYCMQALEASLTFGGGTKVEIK
notes: also called mAb ID: 47; Mab No. 47
B9: the “Minimum concentration for TLP binding” value in test [3] came to 0.5 ng/mL. Besides, the in vitro neutralization in test [15] and in test [16] was greater than 625 ng/mL throughout. Further, the minimum neutralizing concentration in [23] and in test [24] was 4.9 ng/mL in each case. Further, the Endpoint immunostaining concentration in test [2] and in [19] was 0.5 ng/mL each time.

For the origin of these results see patent US20180155411A1 (Stanford University, published 2018).
